Laboratory results published in patent US8981056.

Target: Aspergillus terreus LOVF Polyketide Synthase

B1: LovD G7 mutant (protein)
chain: MGSIIDAAAAAGPVVLMETAFRKAVESRQIPGAVIMARDASGNLNYTRCFGARTVRRDENNQLPPLQVDTPCRLASATKLLTTIMVLQCMERGLVDLDETVDRLLPDLSAMPVLEGFDDAGNARLRERRGKITLRHLLTHTSGLSYVFLHPLLREYMAQGYLQSAEKFGIQSRLAPPAVNDPGAEWIYGTNLDWAGKLVERATGLDLEQYLQENICAPLGITDMTFKLQQRPDMLARRADQTHRNSADGRLRYDDSVYFRADGEECFGGQGVFSSPGSYMKVLHSLLKRDGLLLQPQTVDLMFQPALEPRLEEQMNQHMDASPHINYGGPMPMFLRRSFGLGGIIALEDLDGENWRRKGSLTFGGGPNIVWQIDPKAGLCTLAFFQLEPWNDPVCRDLTRTFEHAIYAQYQQG
activities towards LovF (kinetic assay for LVA synthesis with LovF as acyl donor): The G7 mutant exhibited a 27-fold decrease in activities towards LovF compared to the G0 parent
